Assay results as given in US7033991.
Like-named read-outs stand apart in the source and are kept apart here. No end group written: not given here.

How the values were obtained:
Conditions in all cases: modification not given
PC2, P16519 [1] = target: T1, PC2, P16519
T1 chain: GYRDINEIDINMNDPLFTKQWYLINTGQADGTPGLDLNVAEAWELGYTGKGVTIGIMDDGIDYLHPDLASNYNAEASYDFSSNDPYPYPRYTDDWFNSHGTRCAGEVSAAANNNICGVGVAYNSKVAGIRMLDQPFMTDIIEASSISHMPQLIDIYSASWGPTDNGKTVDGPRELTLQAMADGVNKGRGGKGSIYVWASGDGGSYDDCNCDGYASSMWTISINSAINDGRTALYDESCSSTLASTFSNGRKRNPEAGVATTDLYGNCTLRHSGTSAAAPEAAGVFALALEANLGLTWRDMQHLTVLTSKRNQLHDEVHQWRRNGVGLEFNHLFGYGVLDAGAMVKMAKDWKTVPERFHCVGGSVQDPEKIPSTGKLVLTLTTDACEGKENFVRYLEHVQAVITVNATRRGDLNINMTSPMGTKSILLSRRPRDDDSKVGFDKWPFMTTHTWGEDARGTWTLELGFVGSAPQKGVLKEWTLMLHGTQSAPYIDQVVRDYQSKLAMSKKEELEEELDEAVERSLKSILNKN

[2] = target: T2, Furin (recombinant, truncated) (mouse), P23188
T2 chain: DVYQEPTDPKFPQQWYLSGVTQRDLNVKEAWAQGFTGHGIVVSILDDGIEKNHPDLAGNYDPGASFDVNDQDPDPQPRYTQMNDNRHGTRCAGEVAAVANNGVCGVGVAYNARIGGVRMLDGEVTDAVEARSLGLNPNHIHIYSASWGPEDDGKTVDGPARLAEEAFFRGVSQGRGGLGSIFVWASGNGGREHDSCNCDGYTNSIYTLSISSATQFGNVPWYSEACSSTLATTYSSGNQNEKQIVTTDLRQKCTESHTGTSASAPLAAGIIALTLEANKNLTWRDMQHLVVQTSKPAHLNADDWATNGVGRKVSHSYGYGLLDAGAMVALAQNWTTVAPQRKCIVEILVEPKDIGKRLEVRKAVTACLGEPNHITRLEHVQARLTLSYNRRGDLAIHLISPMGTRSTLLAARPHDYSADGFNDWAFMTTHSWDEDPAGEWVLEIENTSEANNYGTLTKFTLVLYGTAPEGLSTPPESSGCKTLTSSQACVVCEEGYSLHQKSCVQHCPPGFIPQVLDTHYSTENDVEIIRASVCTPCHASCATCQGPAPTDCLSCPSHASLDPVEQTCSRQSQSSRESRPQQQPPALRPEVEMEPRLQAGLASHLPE

[3] = target: T2, Furin (recombinant, truncated) (mouse), …
PC2, P16519 [4] = target: T1, PC2, P16519
PC1, P29120 [5] = target: T3, PC1, P29120
T3 chain: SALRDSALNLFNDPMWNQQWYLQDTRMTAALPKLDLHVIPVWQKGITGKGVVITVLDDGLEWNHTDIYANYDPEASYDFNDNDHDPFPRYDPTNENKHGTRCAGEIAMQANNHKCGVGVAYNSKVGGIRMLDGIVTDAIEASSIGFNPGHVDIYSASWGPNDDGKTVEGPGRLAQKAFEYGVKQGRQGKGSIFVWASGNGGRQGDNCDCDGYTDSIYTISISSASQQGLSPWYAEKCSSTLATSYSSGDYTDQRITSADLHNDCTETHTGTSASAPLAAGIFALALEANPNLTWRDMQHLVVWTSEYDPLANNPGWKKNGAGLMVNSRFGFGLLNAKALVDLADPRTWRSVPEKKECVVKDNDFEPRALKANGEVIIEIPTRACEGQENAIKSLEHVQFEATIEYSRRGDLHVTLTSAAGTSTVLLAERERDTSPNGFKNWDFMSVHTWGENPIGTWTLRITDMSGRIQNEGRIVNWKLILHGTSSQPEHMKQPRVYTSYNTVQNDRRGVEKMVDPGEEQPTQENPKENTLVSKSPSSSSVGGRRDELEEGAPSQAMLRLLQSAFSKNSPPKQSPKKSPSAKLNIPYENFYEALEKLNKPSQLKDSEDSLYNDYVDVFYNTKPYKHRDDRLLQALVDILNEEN

[6] = target: T2, Furin (recombinant, truncated) (mouse), …
PACE4, P29122 [7] = target: T4, PACE4, P29122
T4 chain: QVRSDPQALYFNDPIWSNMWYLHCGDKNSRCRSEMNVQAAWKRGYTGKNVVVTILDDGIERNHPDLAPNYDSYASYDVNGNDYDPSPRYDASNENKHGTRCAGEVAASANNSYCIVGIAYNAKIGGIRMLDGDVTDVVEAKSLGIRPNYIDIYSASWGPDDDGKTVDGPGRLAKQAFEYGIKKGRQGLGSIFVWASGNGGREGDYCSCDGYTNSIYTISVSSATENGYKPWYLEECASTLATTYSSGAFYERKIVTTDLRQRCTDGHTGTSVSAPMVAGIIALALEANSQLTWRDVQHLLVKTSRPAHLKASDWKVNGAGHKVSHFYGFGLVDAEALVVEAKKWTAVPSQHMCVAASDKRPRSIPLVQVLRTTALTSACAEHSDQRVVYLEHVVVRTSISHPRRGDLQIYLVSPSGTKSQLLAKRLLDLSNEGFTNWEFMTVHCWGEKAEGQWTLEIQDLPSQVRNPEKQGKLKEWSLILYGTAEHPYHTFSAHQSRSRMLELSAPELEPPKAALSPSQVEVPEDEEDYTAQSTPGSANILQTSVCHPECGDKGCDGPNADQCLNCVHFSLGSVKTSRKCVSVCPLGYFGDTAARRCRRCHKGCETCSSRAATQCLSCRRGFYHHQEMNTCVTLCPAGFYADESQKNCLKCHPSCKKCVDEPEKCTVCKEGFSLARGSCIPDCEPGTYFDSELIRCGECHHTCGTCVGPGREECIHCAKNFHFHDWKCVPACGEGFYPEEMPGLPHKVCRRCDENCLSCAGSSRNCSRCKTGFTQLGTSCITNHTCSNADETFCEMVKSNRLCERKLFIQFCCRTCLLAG

[8] = target: T2, Furin (recombinant, truncated) (mouse), …
PC1, P29120 [9] = target: T3, PC1, P29120
PACE4, P29122 [10] = target: T4, PACE4, P29122
[11] = target: T2, Furin (recombinant, truncated) (mouse), …
PC2, P16519 [12] = target: T1, PC2, P16519
[13] = target: T2, Furin (recombinant, truncated) (mouse), …
PC2, P16519 [14] = target: T1, PC2, P16519
[15] = target: T2, Furin (recombinant, truncated) (mouse), …
PC2, P16519 [16] = target: T1, PC2, P16519
PACE4, P29122 [17] = target: T4, PACE4, P29122
PC1, P29120 [18] = target: T3, PC1, P29120
[19] = target: T2, Furin (recombinant, truncated) (mouse), …
PC2, P16519 [20] = target: T1, PC2, P16519
[21] = target: T2, Furin (recombinant, truncated) (mouse), …
PC2, P16519 [22] = target: T1, PC2, P16519
[23] = target: T2, Furin (recombinant, truncated) (mouse), …
[24] = target: Furin (literature), P09958
Furin (literature), P09958, sequence (P09958 108-715): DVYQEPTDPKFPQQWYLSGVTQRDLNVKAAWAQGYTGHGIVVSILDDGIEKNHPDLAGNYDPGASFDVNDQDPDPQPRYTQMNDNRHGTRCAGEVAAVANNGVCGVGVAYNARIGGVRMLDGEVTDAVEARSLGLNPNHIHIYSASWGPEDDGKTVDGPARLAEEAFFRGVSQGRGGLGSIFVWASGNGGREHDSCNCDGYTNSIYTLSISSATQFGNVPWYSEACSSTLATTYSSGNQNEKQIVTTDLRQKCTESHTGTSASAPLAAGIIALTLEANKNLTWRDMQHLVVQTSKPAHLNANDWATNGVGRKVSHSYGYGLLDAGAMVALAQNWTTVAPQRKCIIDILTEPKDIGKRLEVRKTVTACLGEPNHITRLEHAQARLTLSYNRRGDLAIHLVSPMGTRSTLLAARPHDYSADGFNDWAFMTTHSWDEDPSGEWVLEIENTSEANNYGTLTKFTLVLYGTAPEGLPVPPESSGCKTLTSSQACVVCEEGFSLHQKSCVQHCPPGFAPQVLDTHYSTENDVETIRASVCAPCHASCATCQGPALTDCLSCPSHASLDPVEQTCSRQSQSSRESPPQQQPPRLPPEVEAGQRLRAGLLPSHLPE

PC7, Q16549 = target: T5, PC7, Q16549
T5 chain: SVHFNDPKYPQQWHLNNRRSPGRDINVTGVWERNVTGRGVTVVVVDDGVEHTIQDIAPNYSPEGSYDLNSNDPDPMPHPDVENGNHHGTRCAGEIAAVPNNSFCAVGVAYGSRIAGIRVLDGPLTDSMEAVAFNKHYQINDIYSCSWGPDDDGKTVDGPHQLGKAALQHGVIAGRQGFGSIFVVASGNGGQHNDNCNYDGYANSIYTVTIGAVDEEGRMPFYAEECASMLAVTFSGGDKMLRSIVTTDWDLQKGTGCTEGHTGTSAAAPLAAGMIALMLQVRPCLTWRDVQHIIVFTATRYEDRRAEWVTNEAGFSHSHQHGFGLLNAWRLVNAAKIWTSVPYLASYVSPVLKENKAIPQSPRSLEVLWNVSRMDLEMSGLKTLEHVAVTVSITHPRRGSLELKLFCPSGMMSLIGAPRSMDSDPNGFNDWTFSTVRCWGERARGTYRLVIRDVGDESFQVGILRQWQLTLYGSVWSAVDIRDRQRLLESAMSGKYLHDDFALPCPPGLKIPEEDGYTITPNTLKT

Work on Ac-RRKRRR-NH2 [Ac-RRKRRR-NH2] yielded a Ki (PC2, P16519 [1]) of 461000 nM and a Ki [2] of 1300 nM.

Ac-LLRVKR-NH2 [Ac-LLRVKR-NH2] showed a Ki [3] of 3400 nM and a Ki (PC2, P16519 [4]) of 1000 nM.

Binder RRRRRRRRR [Nona-L-arginine] has a Ki (PC1, P29120 [5]) of 12000 nM, a Ki [6] of 42 nM and a Ki (PACE4, P29122 [7]) of 110 nM.

RRRRR [Penta-L-arginine] was tested, and the Ki [8] was 990 nM, the Ki (PC1, P29120 [9]) was 14000 nM and the Ki (PACE4, P29122 [10]) was 980 nM.

For Ac-HRKRRR-NH2 [Ac-HRKRRR-NH2], the Ki [11] was 2100 nM and the Ki (PC2, P16519 [12]) was 309000 nM.

Ac-KHKRRR-NH2 [Ac-KHKRRR-NH2] gave a Ki [13] of 5200 nM and a Ki (PC2, P16519 [14]) of 280000 nM.

With Ac-LLRVKR [Ac-LLRVKR] the Ki [15] was 3500 nM and the Ki (PC2, P16519 [16]) was 1300 nM.

Work on RRRRRRRR [Octa-L-arginine] yielded a Ki (PACE4, P29122 [17]) of 150 nM, a Ki (PC1, P29120 [18]) of 5100 nM and a Ki [19] of 61 nM.

With Ac-KRKRRR-NH2 [Ac-KRKRRR-NH2] the Ki (PC2, P16519 [20]) was 391000 nM and the Ki [21] was 1600 nM.

Ac-RHKRRR-NH2 [Ac-RHKRRR-NH2] was tested, and the Ki (PC2, P16519 [22]) was 152000 nM and the Ki [23] was 3400 nM.

EQRLLKRAKR [PC7 propeptide fragment] was tested, and the Ki [24] was 80 nM and the Ki (PC7, Q16549) was 6 nM.
